The target of assay [1] is C-terminal monomer (Aβ monomer coupled at the carboxyl terminus) (UniProt P05067). Description: SPR, biotin-tagged Aβ on Neutravidin sensor (C-terminal monomer sensor). Background: SPR reads the build-up and loss of mass on a sensor chip optically.
In assay [2] the target is biotinylated Aβ oligomer bound to Neutravidin (Aβ42 oligomer SPR sensor) (UniProt P05067). Description: SPR, biotin-tagged Aβ on Neutravidin sensor (Oligomer sensor).
Assay [3] addresses N-terminal monomer (Aβ monomer coupled at the amino terminus) (UniProt P05067). Description: SPR, biotin-tagged Aβ on Neutravidin sensor (N-terminal monomer sensor).
Assay [4] has as its target Aβ monomer peptide (Aβ42 Peptide Monomer) on ELISA plates (UniProt P05067). The experiment in a line: ELISA, best fit of curves, blank plate against Aβ monomer plate. For orientation: ELISA stands for enzyme-linked immunosorbent assay.
For assay [5] the target is unchanged. Description: ELISA, Aβ monomer plate, typical half maximum titer.
Assay [6] concerns the target globular Aβ oligomer (Aβ42 oligomers) on ELISA plates (UniProt P05067). Description: ELISA half-max titer, Aβ oligomer plate against blank plate.
Assay [7] has the same target. Description: ELISA on globular Aβ oligomer plates with chaotropic salt elution (avidity); this end, printed '>4M', is untreated IVIG (50% not reached at 4M, the highest concentration used).
Assay [8] deals with Aβ fibril (Aβ42 fibril) (UniProt P05067). The experiment in a line: ELISA, best fit of curves, blank plate against Aβ fibril plate.
Aβ fibril (Aβ42 fibril), sequence (P05067 672-713 limits assumed): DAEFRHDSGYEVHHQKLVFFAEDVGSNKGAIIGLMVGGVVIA
For assay [9] the target is unchanged. The experiment in a line: ELISA, Aβ fibril plate, typical half maximum titer.
The target in assay [10] is globular Aβ oligomer (Aβ42 oligomers) on ELISA plates (UniProt P05067). The experiment in a line: ELISA, Aβ oligomer plate, typical half maximum titer.
globular Aβ oligomer (Aβ42 oligomers) on ELISA plates, sequence (P05067 672-713 limits assumed): as above
The target of assay [11] is Aβ fibril (Aβ42 fibril) (UniProt P05067). The experiment in a line: ELISA, Aβ fibril plate, fitted maximum.
The target in assay [12] is Aβ monomer peptide (Aβ42 Peptide Monomer) on ELISA plates (UniProt P05067). Description: ELISA, Aβ monomer plate, fitted maximum.
Aβ monomer peptide (Aβ42 Peptide Monomer) on ELISA plates, sequence (P05067 672-713 limits assumed): as above
Assay [13] concerns the target globular Aβ oligomer (Aβ42 oligomers) on ELISA plates (UniProt P05067). The experiment in a line: ELISA, best fit of curves, blank plate against Aβ oligomer plate.
The target in assay [14] is Aβ fibril (Aβ42 fibril) (UniProt P05067). The experiment in a line: ELISA half-max titer, Aβ fibril plate against blank plate.
Assay [15] deals with Aβ monomer peptide (Aβ42 Peptide Monomer) on ELISA plates (UniProt P05067). Description: competition ELISA on Aβ monomer plates, IVIG in 3-fold dilutions from 1 mg/ml, competitor thyroglobulin 40 µg/ml.
Assay [16] shares this target. Description: ELISA half-max titer, Aβ monomer plate against blank plate.
For assay [17], the target named is globular Aβ oligomer (Aβ42 oligomers) on ELISA plates (UniProt P05067). The experiment in a line: ELISA, Aβ oligomer plate, fitted maximum.

A word on the Kd: it is the equilibrium constant for the complex coming apart. Read a low Kd as a tighter complex.

C-terminal monomer (Aβ monomer coupled at the carboxyl terminus), sequence (P05067 672-713): as the sequence (P05067 672-713 limits assumed) above
N-terminal monomer (Aβ monomer coupled at the amino terminus), sequence (P05067 672-713): as the sequence (P05067 672-713 limits assumed) above
biotinylated Aβ oligomer bound to Neutravidin (Aβ42 oligomer SPR sensor), sequence (P05067 672-713 limits assumed): as above

Regarding 6E10 monoclonal anti-Aβ antibody, the Kd in assay [1] is 47 nM; in [2], 69 nM; in assay [3], 158 nM.
On to “intravenous immunoglobulin (IVIG; Gammagard Liquid, Baxter) (antibody)”, for which the fold by which maximum binding on blank plates exceeds that on the amyloid plate (in assay [4]; in the assay with Aβ fibril (Aβ42 fibril) [8]; in assay [13]) was 1.6 fold throughout. Further, the half maximum titer came out at 42.8 in assay [5], 15.8 with Aβ fibril (Aβ42 fibril) [9] and 9.42 in assay [10]. Also, the fold by which the blank plate half maximum binding titer is lower than the titer on this plate came to 3.9 fold in [6], 6.5 fold with Aβ fibril (Aβ42 fibril) [14] and 17.6 fold in assay [16]. For the same substance, the ammonium thiocyanate concentration for 50% maximal binding in assay [7] is 4 M. Further, the maximum binding value (A450 nm units) came out at 2.82 with Aβ fibril (Aβ42 fibril) [11], 2.7 in [12] and 2.88 in assay [17]. In addition, the percent of control binding in presence of competitor in assay [15] was found to be 50%.

The values above are taken from US20120183527A1.
